According to patent publication US12281155 (INSTITUT PASTEUR, dated 2025):

Columns and labels:
[1] = target: T1, YU2 HIV-1 Env gp140 protein (HIV-1 YU2, UniProt P35961 32-670); experiment: polyreactivity ELISA (FIG. 1)
T1 construct: domain: gp140; also called gp140 (HIV-1 YU2); HIV gp140

[2] = target: T2, recombinant SARS-CoV-2 Spike RBD domain, Wuhan (SARS-CoV-2); experiment: ELISA on coated RBD
T2 construct: also called RBD Wuhan

[3] = target: T2, recombinant SARS-CoV-2 Spike RBD …; experiment: competition ELISA, blocking of RBD binding to ACE2 ectodomain

Binder | binding result [1] | Binding AUC [2] | Blocking % [3] [%]
SPK002M A3 antibody (antibody, human IgG1, kappa, V domains shown) VH: EVQLVESGGGLIQPGGSLRLSCAASTITVTSNYMSWVRQAPGKGLEWVSVIYPGGSTFYADSVKGRFTISADNSKNTLYLQMNSLRAEDTAVYYCARDLVVYGMDVWGQGTTVTVSS VL: EIVLTQSPGTLSLSPGERATLSCRASQSVSSSYLAWYQQKPGQAPRLLIYGASSRATGIPGRFSGSGSGTDFTLTISRLEPEDFAVYYCQQGVTFGGGTKVEIKR | no binding (tested: 4 µg/ml) | 33 | 94
SPK002M A2 antibody (antibody, human IgG1, kappa, V domains shown) VH: EVQLVESGGGLIQPGGSLRLSCAASTITVTSNYMSWVRQAPGKGLEWVSVIYPGGSTFYADSVKGRFTISADNSKNTLYLQMNSLRAEDTAVYYCARDLVVYGMDVWGQGTTVTVSS VL: EIVLTQSPGTLSLSPGERATLSCRASQGVSSSYLAWYQQKPGQAPRLLIYGASSRATGIPGRFSGSGSGTDFTLTISRLEPEDFAVYYCQQGVTFGGGTKVEIKR | no binding (tested: 4 µg/ml) | 33 | 92
SPK002M A1 antibody (antibody, human IgG1, kappa, V domains shown) VH: EVQLVESGGGLIQPGGSLRLSCAASTITVTSNYMSWVRQAPGKGLEWVSVIYPGGSTFYADSVKGRFTISADNSKNTLYLQMNSLRAEDTAVYYCARDLVVYGMDVWGQGTTVTVSS VL: EIVLTQSPGTLSLSPGERATLSCRASQGFSSSYLAWYQQKPGQAPRLLIYGASSRATGIPGRFSGSGSGTDFTLTISRLEPEDFAVYYCQQGVTFGGGTKVEIKR | no binding (tested: 4 µg/ml) | 33 | 92
SPK002M A6 antibody (antibody, human IgG1, kappa, V domains shown) VH: EVQLVESGGGLIQPGGSLRLSCAASGITVTSNYMSWVRQAPGKGLEWVSVIYPGGSTFYADSVKGRFTISADNSKNTLYLQMNSLRAEDTAVYYCARDLVVYGMDVWGQGTTVTVSS VL: EIVLTQSPGTLSLSPGERATLSCRASQSVSSSYLAWYQQKPGQAPRLLIYGASSRATGIPGRFSGSGSGTDFTLTISRLEPEDFAIYYCQQGVTFGGGTKVEIKR | no binding (tested: 4 µg/ml) |  | 
SPK002M B2 antibody (antibody, human IgG1, kappa, V domains shown) VH: EVQLVESGGGLIQPGGSLRLSCAASIITVTSNYMSWVRQAPGKGLEWVSVIYPGGSTFYADSVKGRFTISYDNSKNTLYLQMNSLRAEDTAVYYCARDLVVYGMDVWGQGTTVTVSS VL: EIVLTQSPGTLSLSPGERATLSCRASQSVSSSYLAWYQQKPGQAPRLLIYGASSRATGIPGRFSGSGSGTDFTLTISRLEPEDFAIYYCQQGVTFGGGTKVEIKR | no binding (tested: 4 µg/ml) | 31 | 90
SPK002M A4 antibody (antibody, human IgG1, kappa, V domains shown) VH: EVQLVESGGGLIQPGGSLRLSCAASVITVTSNYMSWVRQAPGKGLEWVSVIYPGGSTFYADSVKGRFTISADNSKNTLYLQMNSLRAEDTAVYYCARDLVVYGMDVWGQGTTVTVSS VL: EIVLTQSPGTLSLSPGERATLSCRASQSVSSSYLAWYQQKPGQAPRLLIYGASSRATGIPGRFSGSGSGTDFTLTISRLEPEDFAVYYCQQGVTFGGGTKVEIKR | no binding (tested: 4 µg/ml) | 34 | 88
SPK002M C3 antibody (antibody, human IgG1, kappa, V domains shown) VH: EVQLVESGGGLIQPGGSLRLSCAASIITVTSNYMSWVRQAPGKGLEWVSVIYPGGSTFYADSVKGRFTISTDNSKNTLYLQMNSLRAEDTAVYYCARDLVVYGMDVWGQGTTVTVSS VL: EIVLTQSPGTLSLSPGERATLSCRASQSVSSSYLAWYQQKPGQAPRLLIYGASSRATGIPGRFSGSGSGTDFTLTISRLEPEDFAVYYCQQGVTFGGGTKVEIKR | no binding (tested: 4 µg/ml) | 34 | 88
SPK002M C1 antibody (antibody, human IgG1, kappa, V domains shown) VH: EVQLVESGGGLIQPGGSLRLSCAASIITVTSNYMSWVRQAPGKGLEWVSVAYPGGSTFYADSVKGRFTISTDNSKNTLYLQMNSLRAEDTAVYYCARDLVVYGMDVWGQGTTVTVSS VL: EIVLTQSPGTLSLSPGERATLSCRASQSVSDSYLAWYQQKPGQAPRLLIYGASSRATGIPGRFSGSGSGTDFTLTISRLEPEDFAVYYCQYGVTFGGGTKVEIKR | no binding (tested: 4 µg/ml) | 32 | 94
SPK002M C2 antibody (antibody, human IgG1, kappa, V domains shown) VH: EVQLVESGGGLIQPGGSLRLSCAASIITVTSNYMSWVRQAPGKGLEWVSVAYPGGSTFYADSVKGRFTISTDNSKNTLYLQMNSLRAEDTAVYYCARDLVVYGMDVWGQGTTVTVSS VL: EIVLTQSPGTLSLSPGERATLSCRASQSVSSSYLAWYQQKPGQAPRLLIYGASSRATGIPGRFSGSGSGTDFTLTISRLEPEDFAVYYCQQGVTFGGGTKVEIKR | no binding (tested: 4 µg/ml) | 32 | 88
SPK002M B1 antibody (antibody, human IgG1, kappa, V domains shown) VH: EVQLVESGGGLIQPGGSLRLSCAASIITVTSNYMSWVRQAPGKGLEWVSVIYPGGSTFYADSVKGRFTISYDNSKNTLYLQMNSLRAEDTAVYYCARDLVVYGMDVWGQGTTVTVSS VL: EIVLTQSPGTLSLSPGERATLSCRASQSVSDSYLAWYQQKPGQAPRLLIYGASSRATGIPGRFSGSGSGTDFTLTISRLEPEDFAIYYCQYGVTFGGGTKVEIKR | no binding (tested: 4 µg/ml) | 31 | 87
SPK002M A5 antibody (antibody, human IgG1, kappa, V domains shown) VH: EVQLVESGGGLIQPGGSLRLSCAASVITVTSNYMSWVRQAPGKGLEWVSVIYPGGSTFYADSVKGRFTISADNSKNTLYLQMNSLRAEDTAVYYCARDLVVYGMDVWGQGTTVTVSS VL: EIVLTQSPGTLSLSPGERATLSCRASQSVSSSYLAWYQQKPGQAPRLLIYGASSRATGIPGRFSGSGSGTDFTLTISRLEPEDFAIYYCQQGVTFGGGTKVEIKR | no binding (tested: 4 µg/ml) | 34 | 89
